{"source": "IntAct's records for PubMed 19680263", "parents": {"B1": {"name": "Complement factor H (Homo sapiens), P08603 (parent)", "chain": "MRLLAKIICLMLWAICVAEDCNELPPRRNTEILTGSWSDQTYPEGTQAIYKCRPGYRSLGNVIMVCRKGEWVALNPLRKCQKRPCGHPGDTPFGTFTLTGGNVFEYGVKAVYTCNEGYQLLGEINYRECDTDGWTNDIPICEVVKCLPVTAPENGKIVSSAMEPDREYHFGQAVRFVCNSGYKIEGDEEMHCSDDGFWSKEKPKCVEISCKSPDVINGSPISQKIIYKENERFQYKCNMGYEYSERGDAVCTESGWRPLPSCEEKSCDNPYIPNGDYSPLRIKHRTGDEITYQCRNGFYPATRGNTAKCTSTGWIPAPRCTLKPCDYPDIKHGGLYHENMRRPYFPVAVGKYYSYYCDEHFETPSGSYWDHIHCTQDGWSPAVPCLRKCYFPYLENGYNQNYGRKFVQGKSIDVACHPGYALPKAQTTVTCMENGWSPTPRCIRVKTCSKSSIDIENGFISESQYTYALKEKAKYQCKLGYVTADGETSGSITCGKDGWSAQPTCIKSCDIPVFMNARTKNDFTWFKLNDTLDYECHDGYESNTGSTTGSIVCGYNGWSDLPICYERECELPKIDVHLVPDRKKDQYKVGEVLKFSCKPGFTIVGPNSVQCYHFGLSPDLPICKEQVQSCGPPPELLNGNVKEKTKEEYGHSEVVEYYCNPRFLMKGPNKIQCVDGEWTTLPVCIVEESTCGDIPELEHGWAQLSSPPYYYGDSVEFNCSESFTMIGHRSITCIHGVWTQLPQCVAIDKLKKCKSSNLIILEEHLKNKKEFDHNSNIRYRCRGKEGWIHTVCINGRWDPEVNCSMAQIQLCPPPPQIPNSHNMTTTLNYRDGEKVSVLCQENYLIQEGEEITCKDGRWQSIPLCVEKIPCSQPPQIEHGTINSSRSSQESYAHGTKLSYTCEGGFRISEENETTCYMGKWSSPPQCEGLPCKSPPEISHGVVAHMSDSYQYGEEVTYKCFEGFGIDGPAIAKCLGEKWSHPPSCIKTDCLSLPSFENAIPMGEKKDVYKAGEQVTYTCATYYKMDGASNVTCINSRWTGRPTCRDTSCVNPPTVQNAYIVSRQMSKYPSGERVRYQCRSPYEMFGDEEVMCLNGNWTEPPQCKDSTGKCGPPPPIDNGDITSFPLSVYAPASSVEYQCQNLYQLEGNKRITCRNGQWSEPPKCLHPCVISREIMENYNIALRWTAKQKLYSRTGESVEFVCKRGYRLSSRSHTLRTTCWDGKLEYPTCAKR", "partner": "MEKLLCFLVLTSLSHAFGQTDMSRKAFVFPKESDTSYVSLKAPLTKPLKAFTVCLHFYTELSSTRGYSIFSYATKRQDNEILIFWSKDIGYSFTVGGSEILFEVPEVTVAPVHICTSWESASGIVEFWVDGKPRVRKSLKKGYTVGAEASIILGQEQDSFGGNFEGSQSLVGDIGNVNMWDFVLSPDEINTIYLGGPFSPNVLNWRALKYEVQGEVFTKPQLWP"}}, "data": [{"variants_of": "B1", "settings": "with crp_human CRP", "values": [{"variant": "R1215G", "effect of a mutation on the interaction": "decreasing interaction strength"}, {"variant": "W1183L", "effect of a mutation on the interaction": "decreasing interaction strength"}, {"variant": "R1210C", "effect of a mutation on the interaction": "decreasing interaction strength"}, {"variant": "V1197A", "effect of a mutation on the interaction": "decreasing interaction strength"}]}, {"variants_of": "B1", "settings": "with crp_human CRP", "remark": "another data set of the same source", "values": [{"variant": "R1203E;R1206E;R1210S;K1230S;R1231A", "effect of a mutation on the interaction": "disrupting interaction strength"}]}, {"variants_of": "B1", "settings": "with crp_human CRP", "remark": "another data set of the same source", "values": [{"variant": "R1203E;R1206E;R1210S;K1230S;R1231A", "effect of a mutation on the interaction": "disrupting interaction strength"}]}]}
